These are literature values, as cited in publication PMC7823800.

Like-named read-outs stand apart in the source and are kept apart here.

In data set [1] the target is TNF (Homo sapiens) (UniProt P01375).
For data set [2] the target is unchanged. This is another data set of the same source.

Chain of TNF (Homo sapiens) (P01375 77-233): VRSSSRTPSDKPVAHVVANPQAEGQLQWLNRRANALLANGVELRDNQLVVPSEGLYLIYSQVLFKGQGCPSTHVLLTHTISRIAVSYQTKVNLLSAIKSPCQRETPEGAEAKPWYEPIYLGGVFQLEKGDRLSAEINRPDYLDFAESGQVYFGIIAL
Chain of CrmB (P0DSV7 23-349): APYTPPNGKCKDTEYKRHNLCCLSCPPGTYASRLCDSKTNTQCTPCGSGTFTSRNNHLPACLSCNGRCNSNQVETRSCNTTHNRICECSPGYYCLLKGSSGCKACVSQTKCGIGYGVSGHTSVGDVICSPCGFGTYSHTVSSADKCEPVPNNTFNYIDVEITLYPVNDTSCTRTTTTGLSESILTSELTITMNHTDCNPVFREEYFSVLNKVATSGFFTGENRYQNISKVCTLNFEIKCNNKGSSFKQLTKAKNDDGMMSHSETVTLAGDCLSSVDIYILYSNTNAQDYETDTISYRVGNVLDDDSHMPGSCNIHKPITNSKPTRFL
Chain of TNFR2 (P20333 23-461): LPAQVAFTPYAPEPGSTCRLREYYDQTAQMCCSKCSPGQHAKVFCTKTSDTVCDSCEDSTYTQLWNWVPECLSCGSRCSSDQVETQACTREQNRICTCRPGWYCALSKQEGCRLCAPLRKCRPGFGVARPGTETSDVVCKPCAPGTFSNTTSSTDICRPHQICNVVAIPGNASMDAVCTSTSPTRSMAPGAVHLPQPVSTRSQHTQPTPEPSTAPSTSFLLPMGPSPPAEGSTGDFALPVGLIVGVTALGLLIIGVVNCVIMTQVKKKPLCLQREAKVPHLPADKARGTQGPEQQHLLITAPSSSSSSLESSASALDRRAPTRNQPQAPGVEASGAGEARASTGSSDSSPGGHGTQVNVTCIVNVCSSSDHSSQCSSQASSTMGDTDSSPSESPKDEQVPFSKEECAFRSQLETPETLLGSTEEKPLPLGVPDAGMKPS

As a reminder, the Kd is the equilibrium constant for the complex coming apart. Regarding CrmB (from UniProt P0DSV7), the Kd with TNF (Homo sapiens) [1] is 0.28 nM.
On to TNFR2 (from UniProt P20333), for which the Kd with TNF (Homo sapiens) [2] is 0.3 nM.
